Laboratory results as given in article PMC11379823.

T1: human orexin receptor 2 (human) (UniProt O43614)
T1 sequence: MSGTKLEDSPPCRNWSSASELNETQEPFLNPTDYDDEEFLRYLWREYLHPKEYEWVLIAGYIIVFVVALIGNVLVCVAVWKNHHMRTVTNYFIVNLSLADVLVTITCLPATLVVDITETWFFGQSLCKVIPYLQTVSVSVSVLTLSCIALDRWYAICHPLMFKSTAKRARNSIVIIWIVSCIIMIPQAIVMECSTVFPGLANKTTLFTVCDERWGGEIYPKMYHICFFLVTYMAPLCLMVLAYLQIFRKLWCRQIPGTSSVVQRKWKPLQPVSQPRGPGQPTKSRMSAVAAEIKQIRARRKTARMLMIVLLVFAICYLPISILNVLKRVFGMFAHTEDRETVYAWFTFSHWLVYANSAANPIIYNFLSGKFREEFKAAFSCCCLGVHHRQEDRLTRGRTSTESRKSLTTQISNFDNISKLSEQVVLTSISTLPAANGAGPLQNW


Molecular target: T1, human orexin receptor 2 (human)

intracellular accumulation of IP1 in hOX2R/CHO-EA cells, EC50 [nM] | intracellular phosphorylation of CREB (Ser133) in hOX2R/CHO-EA cells, EC50 [nM] | β-arrestin recruitment in hOX2R/CHO-EA cells (PathHunter), EC50 [nM] | Molecule
3.2 | 4.7 | 4 | orexin-B (from UniProt O43612 70-97) (peptide)
0.84 | 1.8 | 3 | QPLPDCCRQKTCSCRLYELLHGAGNHAAGILTL [orexin-A]
